How the values were obtained:
human Nup133 β-propeller = target: T1, human Nup133 β-propeller (human, UniProt Q8WUM0 67-514, limits assumed); assay: BLI (Octet Red96), biotinylated VHH on streptavidin sensors, 40 nM propeller in solution
T1 construct: domain: β-propeller; also called human Nup133 beta propeller; human propeller
T1 sequence (looked up): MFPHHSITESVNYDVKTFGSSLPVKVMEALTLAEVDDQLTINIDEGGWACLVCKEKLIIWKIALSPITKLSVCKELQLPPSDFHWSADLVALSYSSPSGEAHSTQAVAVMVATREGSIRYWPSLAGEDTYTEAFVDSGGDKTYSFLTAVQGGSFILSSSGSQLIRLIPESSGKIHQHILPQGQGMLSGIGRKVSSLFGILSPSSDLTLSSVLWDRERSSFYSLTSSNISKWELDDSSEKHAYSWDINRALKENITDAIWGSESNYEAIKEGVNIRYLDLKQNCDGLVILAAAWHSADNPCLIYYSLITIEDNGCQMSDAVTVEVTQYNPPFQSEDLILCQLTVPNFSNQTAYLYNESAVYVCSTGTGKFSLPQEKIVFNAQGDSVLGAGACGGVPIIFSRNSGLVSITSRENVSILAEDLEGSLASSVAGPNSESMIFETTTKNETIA

[1] = target: T2, Xenopus Nup133 β-propeller (Xenopus); assay: as above
T2 construct: domain: β-propeller; also called Xenopus Nup133 beta propeller; Xenopus propeller

[2] = target: T3, human Nup133 in nuclear pore complexes of HeLa cells (human, UniProt Q8WUM0 1-1156); assay: immunofluorescence of HeLa cells with fluorophore-labelled VHH (Figures 1 and 2)
T3 construct: whole, on cells; Endogenous protein inside permeabilized HeLa cells, as part of assembled NPCs; not on the cell surface; also called human NPCs
T3 sequence (looked up): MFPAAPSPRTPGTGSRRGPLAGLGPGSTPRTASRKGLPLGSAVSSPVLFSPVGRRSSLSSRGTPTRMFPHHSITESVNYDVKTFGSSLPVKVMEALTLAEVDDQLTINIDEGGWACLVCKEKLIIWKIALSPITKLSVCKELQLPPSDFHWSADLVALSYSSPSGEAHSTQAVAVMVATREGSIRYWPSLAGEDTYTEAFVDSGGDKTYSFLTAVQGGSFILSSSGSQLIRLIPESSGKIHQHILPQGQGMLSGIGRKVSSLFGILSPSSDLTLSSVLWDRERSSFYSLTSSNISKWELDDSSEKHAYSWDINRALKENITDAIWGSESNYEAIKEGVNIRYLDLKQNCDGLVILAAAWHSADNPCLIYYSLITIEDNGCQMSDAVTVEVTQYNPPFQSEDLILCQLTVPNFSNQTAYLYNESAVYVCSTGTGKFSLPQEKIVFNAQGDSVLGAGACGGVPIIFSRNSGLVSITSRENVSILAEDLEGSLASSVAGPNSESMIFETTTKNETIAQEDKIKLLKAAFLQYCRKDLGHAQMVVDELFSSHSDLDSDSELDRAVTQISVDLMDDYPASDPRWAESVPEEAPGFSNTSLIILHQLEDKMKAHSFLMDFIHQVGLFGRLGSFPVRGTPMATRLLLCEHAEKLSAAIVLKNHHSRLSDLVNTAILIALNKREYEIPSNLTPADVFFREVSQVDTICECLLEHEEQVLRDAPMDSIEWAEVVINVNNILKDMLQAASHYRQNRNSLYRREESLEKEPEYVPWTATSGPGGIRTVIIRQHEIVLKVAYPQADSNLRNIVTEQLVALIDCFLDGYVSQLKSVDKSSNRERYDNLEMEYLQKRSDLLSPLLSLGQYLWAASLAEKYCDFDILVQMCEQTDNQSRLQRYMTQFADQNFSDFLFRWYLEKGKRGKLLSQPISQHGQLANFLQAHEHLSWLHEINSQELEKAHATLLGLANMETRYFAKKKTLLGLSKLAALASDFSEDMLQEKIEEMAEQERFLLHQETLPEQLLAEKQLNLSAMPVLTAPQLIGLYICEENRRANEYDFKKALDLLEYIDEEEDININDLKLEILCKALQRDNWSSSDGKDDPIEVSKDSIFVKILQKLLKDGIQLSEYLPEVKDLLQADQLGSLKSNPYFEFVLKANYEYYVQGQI

human Nup358 = target: T4, human Nup358 (human, UniProt P49792 1-145); assay: Table 1, target and cross-reactivity (immunofluorescence, Figure 1)
T4 construct: The stainings were on whole NPCs of HeLa cells
T4 sequence (looked up): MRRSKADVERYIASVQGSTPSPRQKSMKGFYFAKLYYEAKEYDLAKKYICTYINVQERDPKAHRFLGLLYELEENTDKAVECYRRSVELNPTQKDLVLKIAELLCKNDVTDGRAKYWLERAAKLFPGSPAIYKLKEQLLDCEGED

B1: KG1D08, biotinylated, reduced form (structural cysteines not disulfide-bonded) (VHH)
VHH: QVQLVESGGGLVQAGGSLRLSCAASGRSFRGNIMAWFRQTPGKERLFVASITGSGYTSYENSVKGRFTISRDSARDTVDLQMTTLAPEDTAVYYCAGRFRGGHNRMPDAYEYWGQGTQVTVSS
modifications: Biotin-PEG11-maleimide on the two additional cysteines at N- and C-terminus; structural cysteines reduced ; Two additional ectopic cysteines at the N- and C-terminus, not in the letters, each carry Biotin-PEG11-maleimide. Struct [CUT]
notes: Expressed in the cytoplasm of E. coli NEB Express; also called reduced KG1D08; not shown: The short N- and C-terminal extensions that carry the two ectopic, biotinylated cysteines
- Kd (human Nup133 β-propeller): ~2 nM
- Kd [1]: < 0.01 nM

B2: KG1D08 (VHH)
VHH: QVQLVESGGGLVQAGGSLRLSCAASGRSFRGNIMAWFRQTPGKERLFVASITGSGYTSYENSVKGRFTISRDSARDTVDLQMTTLAPEDTAVYYCAGRFRGGHNRMPDAYEYWGQGTQVTVSS
notes: also called anti-Nup133 VHH KG1D08
- binding result [2]: binds

B3: KG1D08, biotinylated, post-production disulfide-bridged form (VHH)
VHH: QVQLVESGGGLVQAGGSLRLSCAASGRSFRGNIMAWFRQTPGKERLFVASITGSGYTSYENSVKGRFTISRDSARDTVDLQMTTLAPEDTAVYYCAGRFRGGHNRMPDAYEYWGQGTQVTVSS
modifications: Biotin-PEG11-maleimide on the two additional cysteines at N- and C-terminus; structural cysteines quantitatively oxidized to the intramolecular disulfide bond ; Two additional ectopic cysteines at the N- and C-terminus, not in the letters, each carry Biotin-PEG11-maleimide. Struct [CUT]
notes: Same preparation as the reduced form, then treated with 2 mM GSSG and 1.5 µM each DsbA, DsbC, DsbG for 5 minutes at 52°C (45 minutes heat up); also called KG1D08 with post-production disulfide-bonding; disulfide-stabilized VHH; not shown: The short N- and C-terminal extensions that carry the two ectopic, biotinylated cysteines
- Kd (human Nup133 β-propeller): ~2 nM
- Kd [1]: < 0.01 nM

B4: xhNup358-Nb2t (VHH)
VHH: QVQLVESGGGLVQPGGSLRLSCAASGRPLSDYAMGWFRQAPGKEREFVAAISWKGGETFYAGSVKGRFTISRDDAKNSLYLQMNNLKLEDTAEYSCAAVLGSPHYSGTHYYPAEYDYWGQGTQVTVSS
notes: For staining the VHHs carried two ectopic cysteines (N- and C-termini) labelled with fluorophore maleimide
- binding result (human Nup358): binds

Reference: patent EP4477666A1 (Max-Planck-Gesellschaft zur Förderung der Wissenschaften …, dated 2024)
